These results are taken from paper PMC11162469, “Discovery of RXFP2 genetic association in resistant hypertensive men and RXFP2 antagonists for the treatment of resistant hypertension” (Scientific Reports, 2024).

Series [1] addresses T1, rat RXFP2 (Rattus norvegicus, UniProt F7EMH8). Put plainly: INSL3-stimulated cAMP assay in HEK293 stably expressing rat RXFP2.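 On all read-outs here: cAMP measured with an HitHunter kit in 384-well plates, 11-point dose–response curves up to 1 µM antibody, four-parameter variable-slope fit.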 To be noted: INSL3 EC80-stimulated cAMP, stable expression, N = 2; for IC50: read-out: HEK293-rat RXFP2 cAMP IC50.
Experimental: (§3) RXFP activity assays were developed in HEK293 with stable expression of RXFP2 or RXFP1.
(§4) The same approach was used to generate stable HEK293 lines expressing human and rat RXFP1 and RXFP2 cDNA. The cAMP assay was conducted using the Eurofin Hithunter kit per manufacturer’s instructions in a 384-well format. All dose curve fitting and EC50 and IC50 determinations were performed in Prism (v9.3.0) using the non-linear fit, variable slope (four parameter) function.
A further series deals with human RXFP2 (Homo sapiens, UniProt Q8WXD0). Put plainly: INSL3-stimulated cAMP assay in HEK293 stably expressing human RXFP2. Particulars: read-out: HEK293-human RXFP2 cAMP IC50; INSL3 EC80-stimulated cAMP, stable expression; N = 2.
Series [2] has as its target T1, rat RXFP2. Put plainly: INSL3-stimulated CYP11B2 mRNA expression in H295R stably expressing rat RXFP2. Type of series: cell-based. More on the design: expressed in transfected cells. To be noted: INSL3 EC80 (3.5 nM), 48 h, qPCR; N = 2. As to the method: (§1) RXFP2 antagonists were added to H295R-rRXFP2 before addition of INSL3 EC80 (3.5 nM) for 48 h, whereupon the cells and supernatants were collected. CYP11B1 and CYP11B2 mRNA were determined by qPCR and the RXFP2 blocker potencies were calculated (Fig. 5a). Fifteen antibodies have IC50s < 50 nM, and three of the top antibodies (1F2, 4G6, and 2D4) were selected for evaluation in steroid hormone secretion assays by ELISA.
(§2) Data entered as XY table, with x = [Inhibitor] (nM) and y = CYP11B2 or CYP11B1 fold change.

The nature of series [3]: Pharmacokinetic study of RXFP2 mAbs in rat. The series is classed as in vivo, Wistar Han rats. To be noted: for half-life, extrapolated values: Wistar Han rats, 1 mg/kg sc., over 28 days; for estimated dose to achieve tenfold higher IC50 HEK-rRXFP2 cAMP activity for approximately 28 days in rat: from trough concentration, dose-linearity assumed; for AUClast / Cmax / Tmax: male Wistar Han rats, 1 mg/kg s.c., n = 3, mean ± SD. As to the method: For the pharmacokinetic study of RXFP2 mAbs in rat, 1G1, 2D4, 4B1, 4G6, 1F2, and 3F3 were prepared in phosphate buffered saline (0.100 mg/mL) with low endotoxin (≤ 0.76 EU/mL). Adult male Wistar Han rats (n = 3/mAb) were administered 1 mg/kg subcutaneously (10 mL/kg). Blood samples (100 µL) were collected in EDTA containing tubes at 0.25, 3, 6 24, 48, 96, 168 (day 7), 336 (day 14), 504 (day 21), and 672 (day 28) hours post dose, immediately centrifuged (6100 rpm), and 50 µL plasma stored at − 80 °C until assay. Rats maintained health throughout the study and were anesthetized (isoflurane to effect) and euthanized on day 28.
Frozen rat plasma samples were thawed and analyzed using a qualified analytical method based on sample dilution, followed by Electrochemiluminescence immunoassay analysis. The lower limit of quantification (LLQ) was 0.1 µg/mL using a 10 µL aliquot of 51-fold diluted rat plasma with a higher limit of quantification (HLQ) of 10 µg/mL. RXFP2 mAbs were captured with LDLa protein and detected with sulfo-tag labeled mouse anti-rat IgG2b. The computer systems that were used to acquire and quantify data included Gyrolab Workstation Version 8.1.5 and Watson LIMS version 7.6.1. Rat pharmacokinetic parameters were calculated by non-compartmental analysis (NCA) analysis using WinNonlin Phoenix 64 (version 8.3). Values are reported in mean ± standard deviation.

In series [4] the target is T1, rat RXFP2. In words: INSL3-stimulated CYP11B1 mRNA expression in H295R stably expressing rat RXFP2. Type of series: cell-based. Further details: expressed in transfected cells. Particulars: INSL3 EC80 (3.5 nM), 48 h, qPCR; N = 2. As to the method: as §1, §2
Series [5] has as its target T1, rat RXFP2. In words: Cortisol secretion (ELISA) in H295R stably expressing rat RXFP2. The series is classed as cell-based. More on the design: expressed in transfected cells. To be noted: H295R-rRXFP2, 3.5 nM INSL3, 48 h, read-out: IC50 on INSL3-induced cortisol release. As to the method: as §1
The day after seeding, H295R cells were treated and incubated for 48 h before supernatants and cell lysates were collected. Treatments included INSL3, IgG, 1F2, and 4G6 at 0.035 pM–3.5 µM, 2D4 at 0.01 nM–1 uM, or phosphate buffered saline control. In RXFP2 antagonist assays, 3.5 nM INSL3 was used as the stimulus. Cortisol present in the adrenal cell supernatant at 48 h post treatment was detected by ELISA (R&D KGE008B). Sample dilution was optimized at 1/90 using a standard curve. Aldosterone was below the limit of detection by ELISA (R&D KGE016) and required liquid–liquid extraction (LLE) twice using methyl tetra butyl ether. Post extraction samples were dried (SPE Nitrogen dryer) and reconstituted for ELISA analysis. All samples were run in duplicates.

human RXFP2, sequence (Q8WXD0 whole entry): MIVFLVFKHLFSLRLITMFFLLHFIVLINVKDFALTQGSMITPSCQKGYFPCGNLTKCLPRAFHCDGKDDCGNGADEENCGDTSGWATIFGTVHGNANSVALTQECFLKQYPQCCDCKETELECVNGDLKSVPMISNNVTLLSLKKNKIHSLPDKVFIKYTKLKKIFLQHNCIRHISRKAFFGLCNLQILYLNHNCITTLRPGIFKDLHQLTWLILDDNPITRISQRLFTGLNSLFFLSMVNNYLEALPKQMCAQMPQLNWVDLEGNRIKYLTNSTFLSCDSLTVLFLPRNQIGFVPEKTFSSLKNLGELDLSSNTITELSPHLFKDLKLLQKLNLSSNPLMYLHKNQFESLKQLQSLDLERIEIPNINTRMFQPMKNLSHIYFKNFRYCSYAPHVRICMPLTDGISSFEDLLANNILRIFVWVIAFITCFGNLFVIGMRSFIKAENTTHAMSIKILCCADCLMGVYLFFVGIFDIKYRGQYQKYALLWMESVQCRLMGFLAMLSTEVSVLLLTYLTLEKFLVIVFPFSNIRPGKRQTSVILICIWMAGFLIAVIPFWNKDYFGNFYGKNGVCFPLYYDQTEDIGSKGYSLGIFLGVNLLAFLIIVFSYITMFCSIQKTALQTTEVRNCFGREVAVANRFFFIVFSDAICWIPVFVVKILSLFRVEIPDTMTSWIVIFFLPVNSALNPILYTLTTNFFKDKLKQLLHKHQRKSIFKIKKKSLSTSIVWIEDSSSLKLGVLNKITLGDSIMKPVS
T1 sequence (F7EMH8 20-737): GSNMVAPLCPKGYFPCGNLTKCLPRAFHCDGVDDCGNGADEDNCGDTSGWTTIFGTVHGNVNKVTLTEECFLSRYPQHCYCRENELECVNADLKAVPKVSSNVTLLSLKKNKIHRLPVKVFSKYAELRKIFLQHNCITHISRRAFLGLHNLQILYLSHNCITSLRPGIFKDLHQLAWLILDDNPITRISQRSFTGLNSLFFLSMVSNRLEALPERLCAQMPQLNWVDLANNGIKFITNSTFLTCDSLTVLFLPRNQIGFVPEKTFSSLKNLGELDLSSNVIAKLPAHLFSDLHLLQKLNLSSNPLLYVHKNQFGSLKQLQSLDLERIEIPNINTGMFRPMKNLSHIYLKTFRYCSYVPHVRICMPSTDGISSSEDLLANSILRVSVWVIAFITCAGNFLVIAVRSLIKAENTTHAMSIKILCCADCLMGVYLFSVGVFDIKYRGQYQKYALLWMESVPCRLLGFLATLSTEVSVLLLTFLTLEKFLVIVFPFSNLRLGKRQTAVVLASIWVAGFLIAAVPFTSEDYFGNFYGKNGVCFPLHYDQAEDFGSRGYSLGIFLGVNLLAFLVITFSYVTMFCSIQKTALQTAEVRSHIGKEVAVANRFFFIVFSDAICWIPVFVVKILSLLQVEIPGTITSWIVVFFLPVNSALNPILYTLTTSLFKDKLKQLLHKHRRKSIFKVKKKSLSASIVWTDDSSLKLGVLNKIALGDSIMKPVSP
Experimental for human RXFP2: as §3, §4

B1: 4H1: RXFP2 monoclonal antibody from hybridoma, recombinantly expressed in a rat IgG2b backbone (antibody, V domains shown)
VH: QIQLVQSGPELKKPGETVKISCKTSGYTFTKYPMHWVKQAPGEGLKWMGWINTYSGLPTFADDFKGRFAFSLETSANTADLQINNLKNEDMATYFCAREGKKLSGYFDYWGQGTTLTVSS
VL: DIKMTQSPSSMYASLGERVTITCKASQDINSYLTWFQQKPGQSPKTLIYRANRFVDGVPSRFSGSGSGQDYSLTITSLEYEDMGIYYCLQYDEFPYTFGGGTQLEIK
Regarding B1, in the series with rat RXFP2 [1], the “HEK293-rat RXFP2 cAMP % Max Response” value was 69.7%. Besides, the IC50 with rat RXFP2 [1] was 150 nM; in the series with human RXFP2 it was approximately 218 nM.

B2: 1G1: RXFP2 monoclonal antibody from hybridoma, recombinantly expressed in a rat IgG2b backbone (antibody, V domains shown)
VH: EVQLQQSGPELVKPGASVKMSCKASGYTFTDYNMHWVKQKPGQGLEWIGYINPYNDGTEYNEKFKGKATLTSDKSSSTAYMDLSSLTSEDSAVYYCARGLWFAMNYWGQGTSVTVSS
VL: DIQMTQSSSSFSVSLGDRVTITCKASEDIYNRLAWYQQKPGNTPRLLISGATILETGVPSRFSGSGSGKDYTLSIISLQTEDVATYYCQQYWIIPPTFGGGTKLEIK
In the case of B2, in the series with rat RXFP2 [1], the “HEK293-rat RXFP2 cAMP % Max Response” value is 87.2% and the IC50 turned out to be 28 nM. For the same molecule, in the series with rat RXFP2 [2], the IC50 stood at 0.17 nM. In series [3], the “half-life, extrapolated values” was not below 264 h; the “estimated dose to achieve tenfold higher IC50 HEK-rRXFP2 cAMP activity for approximately 28 days in rat” value is “approximately 10 mg/kg”; the AUClast is 4490 ± 467 µg·h/mL; the Cmax was 9820 ± 766 ng/mL. Further, in series [3], the time to peak (Tmax) is on record as 120 ± 42 h. The same molecule showed a concentration for half-maximal inhibition (IC50) with rat RXFP2 [4] of 0.27 nM.

B3: 3F3: RXFP2 monoclonal antibody from hybridoma, recombinantly expressed in a rat IgG2b backbone (antibody, V domains shown)
VH: QVQLQQPGSVLVRPGASVKLSCKASGYIFTSYWMHWVKQRPGQGLEWIGEIYPNSGRTSYNEKFKGKATVTVDTSSSTAYVDLSSLTSEDSAVYYCASGGHWFAYWGQGTLVTVSA
VL: DIQMTQSSSSFSVSLGDRVTITCKASEDIYNRLAWYQQKPGNAPRLLISGATSLEAGVPSRFSGSGSGKDYTLSITSLQTEDVSTYYCQQYWITPYTFGGGTKLEIK
As to B3, in the series with rat RXFP2 [1], the “HEK293-rat RXFP2 cAMP % Max Response” value was determined as 78.5% and the IC50 amounted to 37 nM. The same molecule registered an IC50 in the series with rat RXFP2 [2] of 0.51 nM. In series [3], the “half-life, extrapolated values” is not below 264 h; the AUClast amounted to 987 ± 200 µg·h/mL; the maximum concentration (Cmax) turned out to be 2350 ± 858 ng/mL; the Tmax came out at 168 ± 0 h. The concentration for half-maximal inhibition (IC50) with rat RXFP2 [4] was found to be 3.85 nM.

B4: 1F2: RXFP2 monoclonal antibody from hybridoma, recombinantly expressed in a rat IgG2b backbone (antibody, V domains shown)
VH: QVQLKQSGPGLVQPSQSLSITCTVSGFSLTAYGVNWVRQSPGKGLEWLGVIWSGGNTDYNAPFISRLSITKDNSKSQVFFKMNSLEADDTAIYYCARAKGYYAMDYWGQGTSVTVSS
VL: DIQMTQSPASLSVSVGESVTITCRATENIYSNLVWYQQKQGQSPQLLVYAVTSLADGVPSRFSGSGSGTQYSLKINSLQSEDFGTYYCQHFWGTPYTFGGGTKLEIK
As to B4, in the series with rat RXFP2 [1], the “HEK293-rat RXFP2 cAMP % Max Response” value was found to be 76.1% and the half-inhibitory concentration (IC50) came out at 19.1 nM. This molecule also had an IC50 with rat RXFP2 [2] of 0.1 nM. For the same molecule, in series [3], the “half-life, extrapolated values” was not below 264 h; the “estimated dose to achieve tenfold higher IC50 HEK-rRXFP2 cAMP activity for approximately 28 days in rat” value is “approximately 10 mg/kg”; the AUClast was 3530 ± 746 µg·h/mL; the maximum concentration (Cmax) is reported as 7860 ± 1750 ng/mL. Further, the Tmax in series [3] worked out at 120 ± 42 h. The IC50 with human RXFP2 is approximately 405 nM. Also, the IC50 with rat RXFP2 [5] was 0.21 nM. Moreover, the midpoint of inhibition with rat RXFP2 [4], the IC50, lay at 0.32 nM.

B5: 4B8: RXFP2 monoclonal antibody from hybridoma, recombinantly expressed in a rat IgG2b backbone (antibody, V domains shown)
VH: QVQLKQSGPGLVQPSQSLSITCTVSGFSLSRYGVHWVRQSPGKGLEWLGVIWSGGSTEYNAVFKSRLSISKDNSKSQVFFKMNSLQANDTAIYYCVRADGYYAMEYWGQGTSVTVSS
VL: DIQMTQSPASLSVSVGETVTITCRASENIYSNLAWYQQKQGKSPQLLVYAVTNLADGVPSRFSGSGSGTQYSLKINSLQSEDFGNYYCQHFWGTPYTFGGGTKLEIK
Regarding B5, the “HEK293-rat RXFP2 cAMP % Max Response” value in the series with rat RXFP2 [1] amounted to 86.6%. Moreover, the half-maximal inhibitory concentration (IC50) is 21.4 nM with rat RXFP2 [1], 0.17 nM in the series with rat RXFP2 [2], approximately 116 nM with human RXFP2 and 0.23 nM in the series with rat RXFP2 [4].

B6: 3F1: RXFP2 monoclonal antibody from hybridoma, recombinantly expressed in a rat IgG2b backbone (antibody, V domains shown)
VH: QVQLKESGPGLVAPSQSLSITCTVSGFSLTDYGVSWIRQPPGKGLEWLGVIWGGGSTDYNPALKSRLSISKDNSKSQVFLKMNSLQADDTAMYYCVKHEGYYAMDYWGQGTSVTVSS
VL: DIQMTQSPASLSVSVGETVTITCRASENIYSNLAWYQQKQGKSPHLLVYAVTNLADGVPSRFSGSGSGTQYSLKINSLQSEDFGSYYCQHFWGTPYTFGGGTKLEIK
With B6, the “HEK293-rat RXFP2 cAMP % Max Response” value in the series with rat RXFP2 [1] came out at 69.7%. In addition, the 50% inhibitory concentration (IC50) in the series with rat RXFP2 [1] was 19.9 nM; with rat RXFP2 [2], 0.23 nM; with human RXFP2, approximately 589 nM; with rat RXFP2 [4] it was 0.27 nM.
